Experimental data taken from patent US20250002588A1 (DIAGONAL THERAPEUTICS, published 2025).
Residue numbers refer to the chain shown, from its start.

B1: DGL893 (bispecific antibody)
chain 1: not shown
chain 2: EVQLLESGGGLVQPGGSLRLSCAASGFTFSDYYMTWIRQAPGKGLEWVSSISGGSTYYADSRKGRFTISRDNSENTLYLQMNSLRAEDTAVYYCARDFGVSGWFGQYGMDVWGQGTLVTVSSGGGGSGGGGSGGGGSQSVLTQPPSASGTPGQRVTISCTGSSSNIGAGYDVHWYQQLPGTAPKLLIYRSNQRPSGVPDRFSGSKSGTSASLAISGLRSEDEADYYCSSYAGNYNLVFGGGTKLTVLDKTHTCPPCPAPEAAGAPSVFLFPPKPKDTLMISRTPEVTCVVVDVSHEDPEVKFNWYVDGVEVHNAKTKPREEQYNSTYRVVSVLTVLHQDWLNGKEYKCKVSNKALPAPIEKTISKAKGQPREPQVCTLPPSRDELTKNQVSLSCAVKGFYPSDIAVEWESNGQPENNYKTTPPVLDSDGSFFLVSKLTVDKSRWQQGNVFSCSVMHEALHNHYTQKSLSLSPGWSHPQFEK
B2: DGL901 (bispecific antibody)
chain 1: not shown
chain 2: B1 chain 2
B3: DGL896 (bispecific antibody)
chain 1: not shown
chain 2: B1 chain 2 with Y33W, S55T
B4: DGL899 (bispecific antibody)
chain 1: not shown
chain 2: B1 chain 2 with S55T, S101A
B5: DGL897 (bispecific antibody)
chain 1: not shown
chain 2: B1 chain 2
B6: DGL895 (bispecific antibody)
chain 1: not shown
chain 2: B1 chain 2 with S55T, S101A
B7: DGL902 (bispecific antibody)
chain 1: not shown
chain 2: B1 chain 2 with Y33W, S101A
B8: DGL903 (bispecific antibody)
chain 1: not shown
chain 2: B1 chain 2 with S55T, S101A
B9: DGL904 (bispecific antibody)
chain 1: not shown
chain 2: B1 chain 2 with Y33W, S55T
B10: DGL900 (bispecific antibody)
chain 1: not shown
chain 2: B1 chain 2 with Y33W, S55T
B11: DGL906 (bispecific antibody)
chain 1: not shown
chain 2: B1 chain 2 with Y32S, T35S, R62V, S101A, W103Y
B12: DGL898 (bispecific antibody)
chain 1: not shown
chain 2: B1 chain 2 with Y33W, S101A
B13: DGL894 (bispecific antibody)
chain 1: not shown
chain 2: B1 chain 2 with Y33W, S101A
B14: DGL905 (bispecific antibody)
chain 1: not shown
chain 2: B1 chain 2 with T35N, R62V, S101A, Y107F
B15: DGL266 (bispecific antibody)
chain 1: EVQLLESGGGLVQPGGSLRLSCAASGFTFSIYAMSWVRQAPGKGLEWVSAISGSGGSTYYADSVKGRFTISRDNSKNTLYLQMNSLRAEDTAVYYCARDFDYWGQGTLVTVTSSGGGGSGGGGSGGGGSQSVLTQPPSASGTPGQRVTISCSGSSSNIGSNYVYWYQQLPGTAPKLLIYGNINRPSGVPDRFSGSKSGTSASLAISGLRSEDEADYYCAAWDDSLNGRVFGGGTKLTVLGGGGSGGGGSGGGGSGVECPPCPAPPVAGPSVFLFPPKPKDTLMISRTPEVTCVVVDVSHEDPEVQFNWYVDGVEVHNAKTKPREEQFNSTFRVVSVLTVVHQDWLNGKEYKCKVSNKGLPAPIEKTISKTKGQPREPQVYTLPPCREEMTKNQVSLWCLVKGFYPSDIAVEWESNGQPENNYKTTPPMLDSDGSFFLYSKLTVDKSRWQQGNVFSCSVMHEALHNHYTQKSLSLSPG
chain 2: EVQLLESGGGLVQPGGSLRLSCAASGFTFSNAWMNWVRQAPGKGLEWVSSISSSSSYIYYADSVKGRFTISRDNSKNTLYLQMNSLRAEDTAVYYCARAVAAGGMFWGLDQWGQGTLVTVTSSGGGGSGGGGSGGGGSQSVLTQPPSASGTPGQRVTISCSGSRSNIGSNSVHWYQQLPGTAPKLLIYGNSNRPSGVPDRFSGSKSGTSASLAISGLRSEDEADYYCQSYDSSLNDHVVFGGGTKLTVLGGGGSGGGGSGGGGSGVECPPCPAPPVAGPSVFLFPPKPKDTLMISRTPEVTCVVVDVSHEDPEVQFNWYVDGVEVHNAKTKPREEQFNSTFRVVSVLTVVHQDWLNGKEYKCKVSNKGLPAPIEKTISKTKGQPREPQVCTLPPSREEMTKNQVSLSCAVKGFYPSDIAVEWESNGQPENNYKTTPPMLDSDGSFFLVSKLTVDKSRWQQGNVFSCSVMHEALHNHYTQKSLSLSPG
B16: PRO006 (bispecific antibody)
chain: EVQLLESGGGLVQPGGSLRLSCAASGFTFSDYYMTWIRQAPGKGLEWVSSISGGSTYYADSRKGRFTISRDNSENTLYLQMNSLRAEDTAVYYCARDFGVAGWFGQYGMDVWGQGTLVTVSSGGGGSGGGGSGGGGSQSVLTQPPSASGTPGQRVTISCTGSSSNIGAGYDVHWYQQLPGTAPKLLIYRSNQRPSGVPDRFSGSKSGTSASLAISGLRSEDEADYYCSSYAGNYNLVFGGGTKLTVLDKTHTCPPCPAPEAAGAPSVFLFPPKPKDTLMISRTPEVTCVVVDVSHEDPEVKFNWYVDGVEVHNAKTKPREEQYNSTYRVVSVLTVLHQDWLNGKEYKCKVSNKALPAPIEKTISKAKGQPREPQVYTLPPSRDELTKNQVSLTCLVKGFYPSDIAVEWESNGQPENNYKTTPPVLDSDGSFFLYSKLTVDKSRWQQGNVFSCSVMHEALHNHYTQKSLSLSPGGGGGSGGGGSEVQLLESGGGLVQPGGSLRLSCAASGFTFSSYAMSWVRQAPGKGLEWVANINQDGSEKNYVDSMRGRFTISRDNSKNTLYLQMNSLRAEDTAVYYCAREFDYWGQGTLVTVTSSGGGGSGGGGSGGGGSQSVLAQPPSASGTPGQRVTISCSGSSSNIGSNYVYWYQQLPGTAPKLLIYGNNKRPSGVPDRFSGSKSGTSASLAISGLRSEDEADYYCAAWDDSLNGRVFGGGTKLTVL
B17: PRO004 (bispecific antibody)
chain: EVQLLESGGGLVQPGGSLRLSCAASGFTFSNAWMNWVRQAPGKGLEWVSSISSSSSYIYYADSVKGRFTISRDNSKNTLYLQMNSLRAEDTAVYYCARAVAAGGMFWGLDQWGQGTLVTVTSSGGGGSGGGGSGGGGSQSVLTQPPSASGTPGQRVTISCSGSRSNIGSNSVHWYQQLPGTAPKLLIYGNSNRPSGVPDRFSGSKSGTSASLAISGLRSEDEADYYCQSYDSSLNDHVVFGGGTKLTVLDKTHTCPPCPAPEAAGAPSVFLFPPKPKDTLMISRTPEVTCVVVDVSHEDPEVKFNWYVDGVEVHNAKTKPREEQYNSTYRVVSVLTVLHQDWLNGKEYKCKVSNKALPAPIEKTISKAKGQPREPQVYTLPPSRDELTKNQVSLTCLVKGFYPSDIAVEWESNGQPENNYKTTPPVLDSDGSFFLYSKLTVDKSRWQQGNVFSCSVMHEALHNHYTQKSLSLSPGGGGGSGGGGSEVQLLESGGGLVQPGGSLRLSCAASGFTFSIYAMSWVRQAPGKGLEWVSAISGSGGSTYYADSVKGRFTISRDNSKNTLYLQMNSLRAEDTAVYYCARDFDYWGQGTLVTVTSSGGGGSGGGGSGGGGSQSVLTQPPSASGTPGQRVTISCSGSSSNIGSNYVYWYQQLPGTAPKLLIYGNINRPSGVPDRFSGSKSGTSASLAISGLRSEDEADYYCAAWDDSLNGRVFGGGTKLTVL
B18: PRO003 (bispecific antibody)
chain: EVQLLESGGGLVQPGGSLRLSCAASGFTFSIYAMSWVRQAPGKGLEWVSAISGSGGSTYYADSVKGRFTISRDNSKNTLYLQMNSLRAEDTAVYYCARDFDYWGQGTLVTVTSSGGGGSGGGGSGGGGSQSVLTQPPSASGTPGQRVTISCSGSSSNIGSNYVYWYQQLPGTAPKLLIYGNINRPSGVPDRFSGSKSGTSASLAISGLRSEDEADYYCAAWDDSLNGRVFGGGTKLTVLDKTHTCPPCPAPEAAGAPSVFLFPPKPKDTLMISRTPEVTCVVVDVSHEDPEVKFNWYVDGVEVHNAKTKPREEQYNSTYRVVSVLTVLHQDWLNGKEYKCKVSNKALPAPIEKTISKAKGQPREPQVYTLPPSRDELTKNQVSLTCLVKGFYPSDIAVEWESNGQPENNYKTTPPVLDSDGSFFLYSKLTVDKSRWQQGNVFSCSVMHEALHNHYTQKSLSLSPGGGGGSGGGGSEVQLLESGGGLVQPGGSLRLSCAASGFTFSNAWMNWVRQAPGKGLEWVSSISSSSSYIYYADSVKGRFTISRDNSKNTLYLQMNSLRAEDTAVYYCARAVAAGGMFWGLDQWGQGTLVTVTSSGGGGSGGGGSGGGGSQSVLTQPPSASGTPGQRVTISCSGSRSNIGSNSVHWYQQLPGTAPKLLIYGNSNRPSGVPDRFSGSKSGTSASLAISGLRSEDEADYYCQSYDSSLNDHVVFGGGTKLTVL
B19: PRO005 (bispecific antibody)
chain: EVQLLESGGGLVQPGGSLRLSCAASGFTFSSYAMSWVRQAPGKGLEWVANINQDGSEKNYVDSMRGRFTISRDNSKNTLYLQMNSLRAEDTAVYYCAREFDYWGQGTLVTVTSSGGGGSGGGGSGGGGSQSVLAQPPSASGTPGQRVTISCSGSSSNIGSNYVYWYQQLPGTAPKLLIYGNNKRPSGVPDRFSGSKSGTSASLAISGLRSEDEADYYCAAWDDSLNGRVFGGGTKLTVLDKTHTCPPCPAPEAAGAPSVFLFPPKPKDTLMISRTPEVTCVVVDVSHEDPEVKFNWYVDGVEVHNAKTKPREEQYNSTYRVVSVLTVLHQDWLNGKEYKCKVSNKALPAPIEKTISKAKGQPREPQVYTLPPSRDELTKNQVSLTCLVKGFYPSDIAVEWESNGQPENNYKTTPPVLDSDGSFFLYSKLTVDKSRWQQGNVFSCSVMHEALHNHYTQKSLSLSPGGGGGSGGGGSEVQLLESGGGLVQPGGSLRLSCAASGFTFSDYYMTWIRQAPGKGLEWVSSISGGSTYYADSRKGRFTISRDNSENTLYLQMNSLRAEDTAVYYCARDFGVAGWFGQYGMDVWGQGTLVTVSSGGGGSGGGGSGGGGSQSVLTQPPSASGTPGQRVTISCTGSSSNIGAGYDVHWYQQLPGTAPKLLIYRSNQRPSGVPDRFSGSKSGTSASLAISGLRSEDEADYYCSSYAGNYNLVFGGGTKLTVL

Each binder was assayed against T1, ALK-1/BMPR-2 receptor pair of the PathHunter U2Os dimerization cells (DiscoverX 93-0962C3) (UniProt P37023 22-503; Q13873 27-1038) (assay: cell-based or functional assay).

% Emax BMP9 [%]	Emax (RLU)	Binder
20	552000	B1
29	800000	B2
10	282000	B3
30	812000	B4
26	701000	B5
26	715000	B6
19	529000	B7
34	918000	B8
17	475000	B9
12	333000	B10
-2	-41100	B11
19	509000	B12
14	383000	B13
36	972000	B14

Target: T1, ALK-1/BMPR-2 receptor pair of the …
Experiment: cell-based or functional assay
Remark: another data set of the same source
Target sequence in this assay (P37023 22-503, chain 1 of 2): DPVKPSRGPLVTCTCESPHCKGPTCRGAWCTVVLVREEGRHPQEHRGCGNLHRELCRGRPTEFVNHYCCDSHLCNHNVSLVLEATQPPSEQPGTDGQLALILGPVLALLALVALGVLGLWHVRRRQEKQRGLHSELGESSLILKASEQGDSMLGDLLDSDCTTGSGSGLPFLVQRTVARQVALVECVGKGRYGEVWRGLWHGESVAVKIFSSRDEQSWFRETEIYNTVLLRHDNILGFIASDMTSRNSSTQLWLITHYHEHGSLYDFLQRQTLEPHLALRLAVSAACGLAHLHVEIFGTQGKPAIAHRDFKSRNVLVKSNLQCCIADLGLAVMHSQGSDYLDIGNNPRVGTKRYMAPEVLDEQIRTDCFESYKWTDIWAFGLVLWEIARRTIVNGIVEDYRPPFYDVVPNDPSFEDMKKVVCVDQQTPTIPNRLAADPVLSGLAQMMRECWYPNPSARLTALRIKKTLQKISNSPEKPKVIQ
Target sequence in this assay (Q13873 27-1038, chain 2 of 2): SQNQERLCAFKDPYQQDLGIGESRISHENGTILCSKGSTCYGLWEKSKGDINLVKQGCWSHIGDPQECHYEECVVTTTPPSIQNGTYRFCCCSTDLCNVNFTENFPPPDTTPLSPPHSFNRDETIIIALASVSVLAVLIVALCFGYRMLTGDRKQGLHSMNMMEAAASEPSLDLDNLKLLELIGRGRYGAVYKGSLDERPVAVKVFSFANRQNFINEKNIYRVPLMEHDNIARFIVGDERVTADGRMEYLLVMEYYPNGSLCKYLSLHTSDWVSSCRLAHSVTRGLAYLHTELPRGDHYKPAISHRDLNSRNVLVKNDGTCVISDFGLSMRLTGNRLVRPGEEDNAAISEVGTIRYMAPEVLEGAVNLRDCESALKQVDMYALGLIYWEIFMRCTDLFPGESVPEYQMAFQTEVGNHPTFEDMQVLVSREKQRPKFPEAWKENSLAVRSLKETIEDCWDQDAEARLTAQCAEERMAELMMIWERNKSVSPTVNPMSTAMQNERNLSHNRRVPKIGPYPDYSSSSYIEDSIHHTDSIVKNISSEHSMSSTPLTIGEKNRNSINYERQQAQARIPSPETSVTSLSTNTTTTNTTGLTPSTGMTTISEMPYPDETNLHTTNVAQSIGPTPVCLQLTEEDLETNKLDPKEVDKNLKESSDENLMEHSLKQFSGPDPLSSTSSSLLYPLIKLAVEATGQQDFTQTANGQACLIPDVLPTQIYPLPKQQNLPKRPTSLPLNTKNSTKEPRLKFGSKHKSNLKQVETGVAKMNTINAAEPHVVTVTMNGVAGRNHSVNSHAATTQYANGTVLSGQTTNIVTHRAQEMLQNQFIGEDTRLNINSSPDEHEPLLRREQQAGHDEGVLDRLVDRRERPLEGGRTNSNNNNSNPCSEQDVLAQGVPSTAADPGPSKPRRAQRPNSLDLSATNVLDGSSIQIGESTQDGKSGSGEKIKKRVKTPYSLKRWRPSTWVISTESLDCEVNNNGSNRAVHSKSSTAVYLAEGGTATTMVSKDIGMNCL

% Emax BMP9 [%]	EC50 [nM]	Emax (RLU)	Binder
39	2	1.04e+06	B15
35	0.1	929000	B16
46	0.5	1.21e+06	B17
47	0.1	1.25e+06	B18
35	0.075	931000	B19
